Assay results from patent publication US20250283117, “RNA-GUIDED NUCLEASES AND ACTIVE FRAGMENTS AND VARIANTS THEREOF AND METHODS OF USE” (Life Edit Therapeutics, Inc., published 2025).

T1: APG05459.1 (Enterococcus sp.)
T1 sequence: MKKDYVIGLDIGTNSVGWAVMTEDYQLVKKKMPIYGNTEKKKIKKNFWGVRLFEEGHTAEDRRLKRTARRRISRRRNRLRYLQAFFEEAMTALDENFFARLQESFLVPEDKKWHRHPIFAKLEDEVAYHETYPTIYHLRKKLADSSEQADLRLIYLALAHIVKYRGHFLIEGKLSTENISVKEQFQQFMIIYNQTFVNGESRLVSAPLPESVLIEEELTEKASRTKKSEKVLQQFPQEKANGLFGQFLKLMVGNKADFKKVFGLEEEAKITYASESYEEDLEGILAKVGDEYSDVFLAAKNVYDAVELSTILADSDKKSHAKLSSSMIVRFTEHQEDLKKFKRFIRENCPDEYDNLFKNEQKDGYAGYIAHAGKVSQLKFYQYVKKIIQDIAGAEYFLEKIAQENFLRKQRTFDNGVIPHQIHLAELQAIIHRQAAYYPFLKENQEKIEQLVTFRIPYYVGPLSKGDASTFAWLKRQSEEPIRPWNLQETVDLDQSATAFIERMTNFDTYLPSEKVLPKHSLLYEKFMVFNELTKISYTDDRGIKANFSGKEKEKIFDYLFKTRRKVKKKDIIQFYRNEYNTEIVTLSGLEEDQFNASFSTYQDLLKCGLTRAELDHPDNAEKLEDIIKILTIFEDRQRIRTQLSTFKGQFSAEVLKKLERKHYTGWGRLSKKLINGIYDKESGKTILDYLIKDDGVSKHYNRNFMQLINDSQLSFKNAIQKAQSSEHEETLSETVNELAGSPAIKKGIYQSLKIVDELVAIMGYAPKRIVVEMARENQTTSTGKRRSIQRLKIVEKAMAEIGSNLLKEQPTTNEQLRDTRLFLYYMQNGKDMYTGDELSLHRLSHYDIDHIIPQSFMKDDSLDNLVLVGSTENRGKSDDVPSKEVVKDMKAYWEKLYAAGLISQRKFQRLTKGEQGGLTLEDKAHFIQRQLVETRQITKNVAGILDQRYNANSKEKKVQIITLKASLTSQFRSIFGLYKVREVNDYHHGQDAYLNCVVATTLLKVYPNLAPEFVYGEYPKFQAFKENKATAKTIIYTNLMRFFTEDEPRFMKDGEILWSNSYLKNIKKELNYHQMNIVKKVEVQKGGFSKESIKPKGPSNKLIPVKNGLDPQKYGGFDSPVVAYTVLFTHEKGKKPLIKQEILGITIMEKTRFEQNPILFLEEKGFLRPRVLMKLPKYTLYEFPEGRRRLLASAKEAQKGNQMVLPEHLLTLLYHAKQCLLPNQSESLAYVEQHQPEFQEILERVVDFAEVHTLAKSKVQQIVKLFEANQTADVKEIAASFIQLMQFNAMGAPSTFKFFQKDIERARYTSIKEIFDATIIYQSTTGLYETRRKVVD

T2: APG05083.1 (Bacillus sp.)
T2 chain: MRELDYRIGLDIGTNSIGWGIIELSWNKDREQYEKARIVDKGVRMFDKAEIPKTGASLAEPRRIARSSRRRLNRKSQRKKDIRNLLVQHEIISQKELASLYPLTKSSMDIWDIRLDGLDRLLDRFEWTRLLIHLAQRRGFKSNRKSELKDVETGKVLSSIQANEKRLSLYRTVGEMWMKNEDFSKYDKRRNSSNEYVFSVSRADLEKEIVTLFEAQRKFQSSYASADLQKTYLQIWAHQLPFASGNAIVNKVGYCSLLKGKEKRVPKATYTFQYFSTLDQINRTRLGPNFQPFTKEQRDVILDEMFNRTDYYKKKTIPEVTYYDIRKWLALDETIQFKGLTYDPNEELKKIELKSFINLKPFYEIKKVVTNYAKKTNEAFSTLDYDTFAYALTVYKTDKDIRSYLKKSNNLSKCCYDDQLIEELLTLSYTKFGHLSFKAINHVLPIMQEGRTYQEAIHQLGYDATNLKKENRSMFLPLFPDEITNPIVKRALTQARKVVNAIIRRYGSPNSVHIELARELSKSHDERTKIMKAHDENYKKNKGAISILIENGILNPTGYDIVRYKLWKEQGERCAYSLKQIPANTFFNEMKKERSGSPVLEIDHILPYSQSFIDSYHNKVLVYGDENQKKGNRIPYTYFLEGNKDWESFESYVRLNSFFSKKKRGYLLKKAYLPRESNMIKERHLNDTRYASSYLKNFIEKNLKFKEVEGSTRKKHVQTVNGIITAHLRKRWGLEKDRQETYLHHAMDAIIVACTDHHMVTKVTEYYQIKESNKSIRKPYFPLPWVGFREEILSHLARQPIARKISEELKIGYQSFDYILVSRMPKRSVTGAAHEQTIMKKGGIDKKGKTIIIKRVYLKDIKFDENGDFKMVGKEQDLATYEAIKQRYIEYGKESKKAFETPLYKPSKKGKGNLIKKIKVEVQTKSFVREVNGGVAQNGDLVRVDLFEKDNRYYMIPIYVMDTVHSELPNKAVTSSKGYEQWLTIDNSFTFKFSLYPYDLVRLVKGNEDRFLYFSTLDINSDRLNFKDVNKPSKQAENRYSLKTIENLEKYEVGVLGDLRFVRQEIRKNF

T3: APG07513.1 (Bacillus sp.)
T3 chain: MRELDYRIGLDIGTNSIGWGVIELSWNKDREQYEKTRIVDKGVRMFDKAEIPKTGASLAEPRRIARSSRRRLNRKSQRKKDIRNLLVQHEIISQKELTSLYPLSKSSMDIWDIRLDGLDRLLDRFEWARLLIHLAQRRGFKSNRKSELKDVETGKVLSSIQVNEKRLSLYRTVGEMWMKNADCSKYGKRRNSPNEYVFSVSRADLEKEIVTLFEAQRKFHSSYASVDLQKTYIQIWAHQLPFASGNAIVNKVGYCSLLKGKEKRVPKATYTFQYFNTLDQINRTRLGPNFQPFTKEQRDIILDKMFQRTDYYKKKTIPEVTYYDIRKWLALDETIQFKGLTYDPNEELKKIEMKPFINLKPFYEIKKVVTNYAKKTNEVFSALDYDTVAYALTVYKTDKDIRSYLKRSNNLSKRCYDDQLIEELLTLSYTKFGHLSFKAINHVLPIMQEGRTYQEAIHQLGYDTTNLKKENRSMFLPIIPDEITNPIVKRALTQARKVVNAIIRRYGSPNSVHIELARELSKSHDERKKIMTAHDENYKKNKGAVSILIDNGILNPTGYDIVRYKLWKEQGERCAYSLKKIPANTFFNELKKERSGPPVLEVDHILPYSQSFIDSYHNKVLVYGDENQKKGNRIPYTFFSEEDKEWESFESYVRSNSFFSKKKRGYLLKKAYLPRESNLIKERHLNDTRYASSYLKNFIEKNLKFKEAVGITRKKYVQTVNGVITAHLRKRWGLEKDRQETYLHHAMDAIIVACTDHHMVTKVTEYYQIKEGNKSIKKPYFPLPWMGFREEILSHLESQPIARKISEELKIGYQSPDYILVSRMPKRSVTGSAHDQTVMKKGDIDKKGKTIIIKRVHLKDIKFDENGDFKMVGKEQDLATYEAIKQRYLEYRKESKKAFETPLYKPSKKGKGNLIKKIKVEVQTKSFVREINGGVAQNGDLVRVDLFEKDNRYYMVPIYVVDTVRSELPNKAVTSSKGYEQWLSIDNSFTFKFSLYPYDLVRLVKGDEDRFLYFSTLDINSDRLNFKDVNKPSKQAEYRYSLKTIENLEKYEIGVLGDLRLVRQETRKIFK


Columns and labels:
[1] = system: T1, APG05459.1 (Enterococcus sp.); assay: cleavage_in_vitro
APG05083.1 = biological target: T2, APG05083.1; assay: cell_activity; HEK293T; PAM NNNNCC; details: tags: E. coli pRSF-1b expression; human cells: N-term SV40 NLS and 3xFLAG, C-term nucleoplasmin NLS
Protocol: (§1) The constructs described above were introduced into mammalian cells. One day prior to transfection, 1×10⁵ HEK293T cells/well (Sigma) were plated in 24-well dishes in Dulbecco's modified Eagle medium (DMEM) plus 10% (vol/vol) fetal bovine serum (Gibco) and 1% Penicillin-Streptomycin (Gibco). The next day when the cells were at 50-60% confluency, 500 ng of a RGN expression plasmid plus 500 ng of a single gRNA expression plasmid were co-transfected using […] of Lipofectamine 3000 (Thermo Scientific) per well, following the manufacturer's instructions. After 48 hours of growth, total genomic DNA was harvested using a genomic DNA isolation kit (Machery-Nagel) according to the manufacturer's instructions.
(§2) Additionally, products from PCR #2 containing Illumina overhang sequences underwent library preparation following the Illumina 16S Metagenomic Sequencing Library protocol. Deep sequencing was performed on an Illumina Mi-Seq platform by a service provider (MOGene). Typically 200,000 of 250 bp paired-end reads (2×100,000 reads) are generated per amplicon. The reads were analyzed using CRISPResso (Pinello, et al. 2016 Nature Biotech, 34:695-697) to calculate the rates of editing. Output alignments were hand-curated to confirm insertion and deletion sites as well as identify microhomology sites at the recombination sites. All experiments were performed in human cells. The “target sequence” is the targeted sequence within the gene target. For each target sequence, the guide RNA comprised the complementary RNA target sequence and the appropriate sgRNA depending on the RGN used.

APG07513.1 = biological target: T3, APG07513.1; assay: cell_activity; HEK293T; PAM NNNNCC; details: tags: E. coli pRSF-1b expression; human cells: N-term SV40 NLS and 3xFLAG, C-term nucleoplasmin NLS
Protocol: as §1, §2

Row | Molecule | activity (APG05083.1) | activity (APG07513.1) | further results
1 | GAGCGGACAGCAGCUUCCUAUAUCUCGUACNNNNNNNNNNNNNNNNNNNNNNNNNGUUUUAGAGUCAUGUUAAAGAACAUAGCAAGUUAAAAUAAGGUUUUAACCGUAAUCAACUGUAAAGUGGCGCUGUUUCGGCGCUUUUUUUGUUU / GAGCGGACTGCAGCTTCCTATATCTCGTAC / GTACGAGATATAGGAAGCTGCAGTCCGCTC [Sequence 1 sgRNA for APG05459.1 ; target mismatch 22] |  |  | activity [1]: 48 % cleaved
2 | Guide 168 ; HPRT1 target of guide 168 (ssRNA ; dsDNA) RNA: CACAUCUCGAGCAAGACGUUGUCAUAGUUCCAUUAUUGCAAAGGCUUUGAUGUUUCUAUGAUAAGGGCUUAGGCCCGUGGCGUUGGGGAUCGCCUGCCCAUUUUAAUGGGCUUCUCCCCAUCUAUUU DNA 1: CACATCTCGAGCAAGACGTT DNA 2: AACGTCTTGCTCGAGATGTG | 11.3 % editing |  | 
3 | Guide 144 ; AurkB target of guide 144 (ssRNA ; dsDNA) RNA: CAUGGCAGUACAUUAGAGCAGUCAUAGUUCCAUUAAAGCCAUUGCUGAAAGACAGCAAUGGCUUUGAUGUUUCUAUGAUAAGGGCUUCGGCCCGUGGCGUUGGGGAUCGCCUGCCCAUUUUAAUGGGCUUCUCCCCAUCUAUUU DNA 1: CATGGCAGTACATTAGAGCA DNA 2: TGCTCTAATGTACTGCCATG |  | 2.4 % editing | 
4 | Guide 185 ; RelA target of guide 185 (ssRNA ; dsDNA) RNA: GGACAGUGCGCAUCUCCCUGGUCAUAGUUCCAUUAUUGCAAAGGCUUUGAUGUUUCUAUGAUAAGGGCUUAGGCCCGUGGCGUUGGGGAUCGCCUGCCCAUUUUAAUGGGCUUCUCCCCAUCUAUUU DNA 1: GGACAGTGCGCATCTCCCTG DNA 2: CAGGGAGATGCGCACTGTCC | 8.2 % editing |  | 
5 | Guide 136 ; AurkB target of guide 136 (ssRNA ; dsDNA) RNA: GGGCCAUUAAAACCUCUCCAGUCAUAGUUCCAUUAAAGCCAUUGCUGAAAGACAGCAAUGGCUUUGAUGUUUCUAUGAUAAGGGCUUCGGCCCGUGGCGUUGGGGAUCGCCUGCCCAUUUUAAUGGGCUUCUCCCCAUCUAUUU DNA 1: GGGCCATTAAAACCTCTCCA DNA 2: TGGAGAGGTTTTAATGGCCC |  | 0.9 % editing | 
